From US20240141039A1 (AGENUS, published 2024)
One block for each binder: values may come before it.

Legend:
[1] = biological target: T1, full-length isoform 2 ECD of cynomolgus monkey CD96 (His-tagged) (cynomolgus monkey); test: SPR Biacore T200, geomean of experiments #1 and #2
T1 construct: also called His-tagged isoform 2 of cynomolgus monkey CD96; cyno CD96 extracellular domain isoform 2
T1 chain: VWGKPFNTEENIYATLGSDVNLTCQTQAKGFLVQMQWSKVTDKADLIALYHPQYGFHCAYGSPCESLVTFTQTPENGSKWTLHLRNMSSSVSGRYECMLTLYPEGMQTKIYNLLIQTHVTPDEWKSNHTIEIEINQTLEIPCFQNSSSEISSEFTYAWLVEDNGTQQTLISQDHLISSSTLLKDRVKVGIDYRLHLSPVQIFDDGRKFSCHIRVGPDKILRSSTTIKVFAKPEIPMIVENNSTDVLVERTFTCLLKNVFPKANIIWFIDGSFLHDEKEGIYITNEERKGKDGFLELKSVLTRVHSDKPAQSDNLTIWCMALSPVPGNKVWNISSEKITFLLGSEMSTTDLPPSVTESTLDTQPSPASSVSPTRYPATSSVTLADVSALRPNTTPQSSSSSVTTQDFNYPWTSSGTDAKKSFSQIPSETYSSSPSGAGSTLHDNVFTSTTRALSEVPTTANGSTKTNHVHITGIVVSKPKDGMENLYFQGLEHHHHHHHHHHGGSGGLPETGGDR
Procedure: (§1) Briefly, surface plasmon resonance experiments were performed using a Biacore T200 instrument, and the association rate (kₐ), dissociation rate (kd), and dissociation constant (KD) were calculated from each experiment using a 1:1 binding model with Biacore T200 Evaluation Software.
(§2) Multispecific molecules were captured using a 30-sec injection at a flow rate of 10 μl/min to reach about 350 resonance units (RUs). […] The sensor chip was regenerated between cycles with two 30-sec injections of 10 mM glycine, pH 1.5. Sensorgrams were evaluated and fit to a simple Langmuir 1:1 interaction model using the global data analysis option of BIAevaluation 3.0 software. Data quality was verified by visually inspecting deviations and curve fitting, and by evaluating the parameters of Rₘₐₓ, Chi2, and Tc.

[2] = biological target: T2, wild type full-length cynomolgus monkey TIGIT expressed on CHO cells (cynomolgus monkey, UniProt A0A7N9I9V4 89-312); test: flow cytometry on CHO cells expressing cynomolgus TIGIT, PE anti-human IgG Fc detection
T2 construct: whole, on cells; also called cynomolgus TIGIT-CHO cells

[3] = biological target: T3, full-length ECD of human TIGIT (His-tagged) (human); test: SPR Biacore T200, Protein A capture, 1:1 model, experiment #2
T3 construct: also called His-tagged human TIGIT; human TIGIT extracellular domain
T3 chain: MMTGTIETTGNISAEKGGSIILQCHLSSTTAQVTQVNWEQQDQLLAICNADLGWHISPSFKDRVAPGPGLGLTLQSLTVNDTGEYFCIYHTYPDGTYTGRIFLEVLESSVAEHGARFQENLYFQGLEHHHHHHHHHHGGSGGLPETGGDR
Procedure: as §1
as §2, with “Antibodies” for “Multispecific molecules”, “500” for “350”

[4] = biological target: T4, full-length ECD of cynomolgus monkey TIGIT (His-tagged) (cynomolgus monkey); test: as above
T4 construct: also called His-tagged cynomolgus monkey TIGIT; cyno TIGIT extracellular domain
Procedure: as §1
as §2, with “Antibodies” for “Multispecific molecules”, “500” for “350”

[5] = biological target: T5, wild type full-length human TIGIT expressed on cells (human, UniProt Q495A1 22-244); test: flow cytometry, human TIGIT CHO cells, geomean of 2 experiments
T5 construct: whole, on cells; also called human TIGIT-CHO; human TIGIT CHO cells
T5 sequence (looked up): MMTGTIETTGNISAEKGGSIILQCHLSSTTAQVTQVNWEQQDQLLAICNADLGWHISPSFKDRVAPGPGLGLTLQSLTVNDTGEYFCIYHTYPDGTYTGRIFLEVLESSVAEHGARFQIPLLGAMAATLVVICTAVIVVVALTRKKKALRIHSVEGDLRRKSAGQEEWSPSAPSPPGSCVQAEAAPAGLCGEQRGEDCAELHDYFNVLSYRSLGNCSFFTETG
Procedure: The ability of anti-TIGIT antibodies to bind to wild type human TIGIT expressed on the surface of CHO cells was assessed. Briefly, CHO cells were transfected with a vector encoding wild type human TIGIT (human TIGIT-CHO), and clones stably expressing TIGIT were selected.
For the antibody binding assay, a frozen aliquot of human TIGIT-CHO cells was thawed at 37° C. and then transferred to a tube containing DPBS supplemented with 0.5% Bovine Serum Albumin and 0.05% Sodium Azide (FACS Buffer). Cells were centrifuged at 300 g for five minutes. The supernatant was discarded, and cells resuspended in FACS buffer were seeded in a 96-well U-bottom tissue culture plate at a density of […] cells per well in 50 μL. In a separate microplate, a 2× concentrated intermediate stock of each antibody was prepared. Antibodies were serially diluted 1-to-4 in FACS buffer. A total of 11 working dilutions ranging from 60 μg/mL to 0.000057 μg/mL were prepared. […] After a 30-minute incubation on ice, the cells were washed twice with cold FACS Buffer, and the cells were analyzed by flow cytometry (BD LSR Fortessa Flow Cytometer). The data were analyzed using the FlowJo software by sequentially gating the FSC-A vs. SSC-A, and SSC-H vs. SSC-A. Mean fluorescence intensity (MFI) values for PE were calculated, and the data were plotted by GraphPad Prism software.

[6] = biological target: T5, wild type full-length human TIGIT …; test: flow cytometry, dual binding: CHO hu-TIGIT cells with antibody and soluble huCD96-His, Alexa Fluor 488 anti-His detection
Excerpt: Cells were centrifuged at 300 g for five minutes.
Antibodies were serially diluted 1-to-3 in FACS buffer.

T2 sequence (A0A7N9I9V4 entry or part of it): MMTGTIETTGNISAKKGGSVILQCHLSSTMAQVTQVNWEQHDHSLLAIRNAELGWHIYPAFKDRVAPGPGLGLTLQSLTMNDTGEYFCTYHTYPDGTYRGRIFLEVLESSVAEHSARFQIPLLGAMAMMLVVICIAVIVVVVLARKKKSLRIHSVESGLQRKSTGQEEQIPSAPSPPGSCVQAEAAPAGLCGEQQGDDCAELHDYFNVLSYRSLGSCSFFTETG

Kd [1]: 45.3 nM | EC50 (read off the curve) [2]: ~0.2 µg/mL
B1: anti-TIGIT×CD96 multispecific molecule BA123 (bispecific antibody, human IgG1, kappa, lambda)
heavy 1: QVQLVQSGAEVKKPGASVKVSCKASGYTFTSYGISWVRQAPGQGLEWMGWISAYNANTNYAQKLQGRVTMTTDTSTSTAYMELRSLRSDDTAVYYCARSAGVLGGMDVWGRGTLVTVSSASTKGPSVFPLAPSSKSTSGGTAALGCLVKDYFPEPVTVSWNSGALTSGVHTFPAVLQSSGLYSLSSVVTVPSSSLGTQTYICNVNHKPSNTKVDKRVEPKSCDKTHTCPPCPAPELLGGPDVFLFPPKPKDTLMISRTPEVTCVVVDVSHEDPEVKFNWYVDGVEVHNAKTKPREEQYNSTYRVVSVLTVLHQDWLNGKEYKCKVSNKALPAPIEKTISKAKGQPREPQVYTLPPSREEMTKNQVSLSCAVKGFYPSDIAVEWESNGQPENNYKTTPPVLDSDGSFFLVSKLTVDKSRWQQGNVFSCSVMHEALHNHYTQKSLSLSPG
light 1: not shown
heavy 2: EVQLVQSGAEVKKPGSSVKVSCKASGYTFASYGISWVRQAPGQGLEWMGGITPFFNRVDVAEKFQGRVTITADKSTSTAYIELSSLRSEDTAVYYCARDLRRGGVGDAFDIWGRGTLVTVSSASTKGPSVFPLAPSSKSTSGGTAALGCLVKDYFPEPVTVSWNSGALTSGVHTFPAVLQSSGLYSLSSVVTVPSSSLGTQTYICNVNHKPSNTKVDKRVEPKSCDKTHTCPPCPAPELLGGPDVFLFPPKPKDTLMISRTPEVTCVVVDVSHEDPEVKFNWYVDGVEVHNAKTKPREEQYNSTYRVVSVLTVLHQDWLNGKEYKCKVSNKALPLPEEKTISKAKGQPREPQVYTLPPSREEMTKNQVSLWCLVKGFYPSDIAVEWESNGQPENNYKTTPPVLDSDGSFFLYSKLTVDKSRWQQGNVFSCSVMHEALHNHYTQKSLSLSPG
light 2: QSALTQPRSVSGSPGQSVTISCTGTSPDVGSHAYRSWYQQHPGKAPKLMIYEVSYRPSGVSNRFSGSKSGNTASLTISGLQAEDEADYYCSSYPPSSATVFGAGTKLTVLGQPKAAPSVTLFPPSSEELQANKATLVCLISDFYPGAVTVAWKADSSPVKAGVETTTPSKQSNNKYAASSYLSLTPEQWKSHRSYSCQVTHEGSTVEKTVAPTEC
notes: copies: 1 + 1 + 1 + 1

Kd [3]: 0.548 nM | koff [3]: 0.000422 s⁻¹ | kon [3]: 770000 M⁻¹ s⁻¹ | Kd [4]: 4.06 nM | koff [4]: 0.00126 s⁻¹ | kon [4]: 310000 M⁻¹ s⁻¹ | EC50 [5]: 8.2 ng/mL
B2: anti-TIGIT monospecific antibody BA148 (antibody, human IgG1, lambda)
heavy: EVQLVQSGAEVKKPGSSVKVSCKASGYTFASYGISWVRQAPGQGLEWMGGITPFFNRVDVAEKFQGRVTITADKSTSTAYIELSSLRSEDTAVYYCARDLRRGGVGDAFDIWGRGTLVTVSSASTKGPSVFPLAPSSKSTSGGTAALGCLVKDYFPEPVTVSWNSGALTSGVHTFPAVLQSSGLYSLSSVVTVPSSSLGTQTYICNVNHKPSNTKVDKRVEPKSCDKTHTCPPCPAPELLGGPDVFLFPPKPKDTLMISRTPEVTCVVVDVSHEDPEVKFNWYVDGVEVHNAKTKPREEQYNSTYRVVSVLTVLHQDWLNGKEYKCKVSNKALPLPEEKTISKAKGQPREPQVYTLPPSREEMTKNQVSLTCLVKGFYPSDIAVEWESNGQPENNYKTTPPVLDSDGSFFLYSKLTVDKSRWQQGNVFSCSVMHEALHNHYTQKSLSLSPGK
light: QSALTQPRSVSGSPGQSVTISCTGTSPDVGSHAYRSWYQQHPGKAPKLMIYEVSYRPSGVSNRFSGSKSGNTASLTISGLQAEDEADYYCSSYPPSSATVFGAGTKLTVLGQPKAAPSVTLFPPSSEELQANKATLVCLISDFYPGAVTVAWKADSSPVKAGVETTTPSKQSNNKYAASSYLSLTPEQWKSHRSYSCQVTHEGSTVEKTVAPTEC
notes: IgG1; also called anti-TIGIT IgG1 antibody BA148

EC50 (read off the curve) [6]: ~0.3 µg/mL
B3: anti-TIGIT×CD96 multispecific molecule BA127 (bispecific antibody, human IgG1, kappa, lambda)
heavy 1: QVQLVQSGAEVKKPGASVKVSCKASGYTFTTYALHWVRQAPGQRLEWMGWINTGSGDTKYSQKFQGRVTITRDTSASTAYMELSSLRSEDTAVYYCARSLGVYYGMDVWGQGTLVTVSSASTKGPSVFPLAPSSKSTSGGTAALGCLVKDYFPEPVTVSWNSGALTSGVHTFPAVLQSSGLYSLSSVVTVPSSSLGTQTYICNVNHKPSNTKVDKRVEPKSCDKTHTCPPCPAPELLGGPDVFLFPPKPKDTLMISRTPEVTCVVVDVSHEDPEVKFNWYVDGVEVHNAKTKPREEQYNSTYRVVSVLTVLHQDWLNGKEYKCKVSNKALPAPIEKTISKAKGQPREPQVYTLPPSREEMTKNQVSLSCAVKGFYPSDIAVEWESNGQPENNYKTTPPVLDSDGSFFLVSKLTVDKSRWQQGNVFSCSVMHEALHNHYTQKSLSLSPG
light 1: not shown
heavy 2: EVQLVQSGAEVKKPGSSVKVSCKASGYTFASYGISWVRQAPGQGLEWMGGITPFFNRVDVAEKFQGRVTITADKSTSTAYIELSSLRSEDTAVYYCARDLRRGGVGDAFDIWGRGTLVTVSSASTKGPSVFPLAPSSKSTSGGTAALGCLVKDYFPEPVTVSWNSGALTSGVHTFPAVLQSSGLYSLSSVVTVPSSSLGTQTYICNVNHKPSNTKVDKRVEPKSCDKTHTCPPCPAPELLGGPDVFLFPPKPKDTLMISRTPEVTCVVVDVSHEDPEVKFNWYVDGVEVHNAKTKPREEQYNSTYRVVSVLTVLHQDWLNGKEYKCKVSNKALPLPEEKTISKAKGQPREPQVYTLPPSREEMTKNQVSLWCLVKGFYPSDIAVEWESNGQPENNYKTTPPVLDSDGSFFLYSKLTVDKSRWQQGNVFSCSVMHEALHNHYTQKSLSLSPG
light 2: QSALTQPRSVSGSPGQSVTISCTGTSPDVGSHAYRSWYQQHPGKAPKLMIYEVSYRPSGVSNRFSGSKSGNTASLTISGLQAEDEADYYCSSYPPSSATVFGAGTKLTVLGQPKAAPSVTLFPPSSEELQANKATLVCLISDFYPGAVTVAWKADSSPVKAGVETTTPSKQSNNKYAASSYLSLTPEQWKSHRSYSCQVTHEGSTVEKTVAPTEC
notes: Anti-CD96 arm = BA139, anti-TIGIT arm = BA150; copies: 1 + 1 + 1 + 1
